Results published in the supplement of paper PMC10567573.

B1: ZNF511 (parent)
chain: FDALDDYEHHYHTLHGNVCSFCKR

Variants of: B1
Assay: protein stability index of a GFP-peptide fusion (GPS, HEK-293T) (PSI 1-6); higher = more stable
Conditions: c terminus: a fixed tail appended
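Note: lentivirally expressed fusions sorted by FACS into six bins by GFP to DsRed ratio, PSI derived from sequencing read proportions per bin multiplied by bin number.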

Protein stability index: each site, then its substitutions
D2: G 4.03 | R 3.19 | Y 3.1 | S 3.51 | L 3.18 | E 4.27 | P 3.11 | F 2.48 | H 2.17 | W 2.3 | I 3.62
E8: N 3.3 | V 2.87 | A 3.66 | I 2.51 | K 3.05 | G 3.55 | C 4.43 | W 2.69 | D 3.82 | Y 2.79 | H 3.63 | R 3.55 | M 2.97
H10: E 3.74 | K 3.24 | S 3.06 | N 3.37 | P 2.76 | C 4.7 | V 2.46 | F 2.92 | A 2.94 | L 2.62 | Q 3.48 | G 3.73 | D 3.85 | R 3.59
R24: S 3.8 | T 3.84 | I 3.08 | K 4.25 | N 4.02 | G 4.01 | F 2.13 | H 3.79 | Y 2.88 | A 3.58 | E 4.25 | W 2.95 | V 3.1 | Q 4.25 | C 3.58 | D 4.06
V18: I 3.53 | T 3.76 | P 4.49 | F 2.97 | L 3.83 | Q 4.18 | Y 3.7 | D 4.12 | K 4.05 | R 3.88 | S 3.82
F1: D 4.31 | A 4.38 | L 4.31 | R 5.08 | W 3.7 | Y 3.59 | H 4.46 | V 4.22 | C 4.38 | S 4.51 | E 4.64 | P 4.04 | I 3.43 | K 4.28 | M 4.59 | G 3.74
D6: Y 2.59 | A 3.54 | I 3.51 | T 3.27 | S 3.95 | E 3.43 | V 2.98 | R 3.52 | H 3.96 | F 2.21 | Q 3.56 | P 3.74 | M 3.03 | L 4.68
Y7: A 3.4 | F 3.24 | W 3.71 | S 4.05 | E 4.31 | R 4.23 | L 3.54 | T 4.16 | I 4.18 | K 4.44 | V 3.98 | Q 4.25 | N 4.25 | M 4.29
H15: V 3.73 | Y 3.23 | K 3.61 | D 3.97 | M 3.88 | N 3.96 | T 4.48 | W 3.3 | Q 3.96 | S 4.13 | P 3.3 | I 3.55 | E 4.36
F21: K 4.2 | T 4.28 | G 4.35 | C 3.59 | N 4.15 | R 4.55 | W 4.32 | I 4.22 | V 4.45 | D 4.62 | A 4.3 | P 3.49 | H 4
L4: D 4.2 | G 4.11 | M 3.81 | E 4.41 | R 3.93 | H 4.48 | S 4.6 | Q 4.18 | N 4.51 | F 4 | A 4.1 | V 3.75 | C 3.94 | W 3.43
T13: A 3.82 | S 3.54 | F 2.65 | P 4.19 | C 4.5 | R 3.07 | Q 3.66 | K 3.4 | E 4.27 | V 3.77 | N 3.56 | L 3.24 | Y 2.92 | W 2.78 | M 3.5
C19: Y 2.2 | W 1.92 | V 2.41 | E 3.21 | P 3.1 | D 3.36 | S 3.04 | M 2.63 | R 2.75 | L 3.71 | N 3.13 | T 3.41 | F 2.24 | Q 2.92
D5: T 3.7 | G 4.12 | E 3.77 | Q 3.86 | A 4.03 | Y 3.1 | M 3.14 | R 3.5 | S 3.24 | K 3.09 | P 4.11
L14: R 3.63 | N 4.18 | A 3.98 | C 4.85 | Q 4.28 | W 3.17 | T 4.04 | H 4.24 | F 3.59 | Y 3.81 | D 4.33 | E 4.48 | P 4.71 | I 3.92
N17: C 2.5 | R 3.9 | I 3.25 | H 3.64 | P 3.16 | E 3.96 | M 3.54 | V 3.67 | Y 2.93 | Q 2.24 | F 3.1 | S 3.98 | L 2.29 | K 3.22 | A 3.55 | W 2.6
K23: Q 3.71 | W 1.93 | A 3.47 | N 3.96 | C 3.25 | H 3.07 | I 2.89 | V 3.28 | E 3.97 | R 4.04 | Y 2.59 | T 3.25 | M 3.92 | L 3.03 | P 3 | F 2.67
H12: N 3.27 | T 3.29 | D 4.41 | L 2.71 | Q 3.3 | R 3.36 | G 3.58 | Y 2.48 | M 2.73 | I 2.16 | K 2.58 | W 2.38 | A 2.96
A3: E 4.08 | W 2.87 | I 3.31 | R 3.81 | F 3.19 | D 3.72 | P 3.7 | L 3.69 | Q 4.04 | T 3.56 | G 3.96 | Y 3.54 | C 4.06 | M 3.56
G16: S 3.37 | I 3.15 | F 2.9 | M 3.15 | L 2.98 | Y 2.85 | R 3.47 | H 3.5 | P 3.46 | T 3.47 | W 2.66 | K 3.22 | D 3.87 | A 3.72 | C 3.42 | V 2.96
C22: W 1.96 | I 2.26 | S 3.31 | R 2.73 | L 2.11 | Q 3.15 | F 2.2 | P 3 | G 2.37 | K 3.02 | E 3.2 | N 3.22 | Y 2.39 | D 3.29 | A 3.11
S20: Y 4.29 | K 3.76 | R 3.27 | G 2.7 | P 3.54 | H 3.56 | N 3.74 | C 3.4 | T 3.81 | W 2.63 | Q 3.85 | A 3.81 | V 3.64 | L 3.35
H9: F 3.03 | Y 2.65 | I 3.39 | P 3.8 | V 3.18 | E 3.71 | A 3.57 | Q 3.43 | S 3.44 | R 4.1 | D 3.69 | G 4
Y11: Q 4.93 | N 4.38 | E 4.55 | K 4.28 | A 4.39 | G 4.01 | I 4.2 | S 4.14 | W 2.34 | D 4.64 | H 4.14 | M 4.45 | F 3.19 | L 4.05 | P 3.22
